{"source": "patent US20100278838A1", "about": "“EPHA2 MONOCLONAL ANTIBODIES AND METHODS OF USE THEREOF” (MEDIMMUNE, LLC, priority 2002, published 2010)", "molecules": {"B1": {"name": "Eph099B-208.261: EphA2 monoclonal antibody; hybridoma ATCC PTA-4573; VL SEQ ID NO:1, VH SEQ ID NO:5 (antibody, listed as Homo sapiens, V domains shown)", "VH": "QVQLQQPGAELVKPGASVKLSCKASGYTFTSYWMHWVKQRPGQGLEWIGMIHPNSGSTNYNEKFKSKATLTVDKSSSTAYMRLSSLTSEDSAVYYCARGGNMVGGGYWGQGTTLTVSS", "VL": "QIVLTQSPALMSASPGEKVTMTCSASSSVSYMYWYQQKPRSSPKPWIYLTTNLASGVPARFSGSGSGTSYSLTISSMEAEDAATYYCQQWSSNPFTFGSGTKLEIR"}, "B2": {"name": "EA2: EphA2 agonistic monoclonal antibody; ATCC deposit no. PTA-4380; co-pending application Ser. No. 10/436,783; VL SEQ ID NO:33, VH SEQ ID NO:37 (antibody, listed as Homo Sapiens, V domains shown)", "VH": "DVKLVESGGGLVKPGGSLKLSCAASGFTFSSYTMSWVRQTPEKRLEWVATISSGGTYTYYPDSVKGRFTISRDNAKNTLYLQMSSLKSEDTAMYYCTREAIFTYWGQGTLVTVSA", "VL": "DIKMTQSPSSMYASLGERVTITCKASQDINNYLSWFQQKPGKSPKTLIYRANRLVDGVPSRFSGSGSGQDYSLTISSLEYEDMGIYYCLKYDEFPYTFGGGTKLEIK"}, "B3": {"name": "Eph099B-233.152: EphA2 monoclonal antibody; hybridoma ATCC PTA-5194; VL SEQ ID NO:17, VH SEQ ID NO:21 (antibody, listed as Homo sapiens, V domains shown)", "VH": "EVKLVESGGGLVQPGGSLSLSCAASGFTFTDYSMNWVRQPPGKALEWLGFIRNKANDYTTEYSASVKGRFTISRDNSQSILYLQMNALRAEDSATYYCVRYPRYHAMDSWGQGTSVTVSS", "VL": "DIVLTQSPATLSVTPGDSVNLSCRASQSISNNLHWYQQKSHESPRLLIKYVFQSISGIPSRFSGSGSGTDFTLSINSVETEDFGMYFCQQSNSWPLTFGAGTKLELK"}}, "key": {"immobilized EphA2-Fc": {"target": "T1, immobilized EphA2-Fc (Homo sapiens, UniProt P29317)", "T1 construct": "consisted of the extracellular domain of human EphA2 linked to human immunoglobulin", "T1 sequence (P29317 24-537 limits assumed)": "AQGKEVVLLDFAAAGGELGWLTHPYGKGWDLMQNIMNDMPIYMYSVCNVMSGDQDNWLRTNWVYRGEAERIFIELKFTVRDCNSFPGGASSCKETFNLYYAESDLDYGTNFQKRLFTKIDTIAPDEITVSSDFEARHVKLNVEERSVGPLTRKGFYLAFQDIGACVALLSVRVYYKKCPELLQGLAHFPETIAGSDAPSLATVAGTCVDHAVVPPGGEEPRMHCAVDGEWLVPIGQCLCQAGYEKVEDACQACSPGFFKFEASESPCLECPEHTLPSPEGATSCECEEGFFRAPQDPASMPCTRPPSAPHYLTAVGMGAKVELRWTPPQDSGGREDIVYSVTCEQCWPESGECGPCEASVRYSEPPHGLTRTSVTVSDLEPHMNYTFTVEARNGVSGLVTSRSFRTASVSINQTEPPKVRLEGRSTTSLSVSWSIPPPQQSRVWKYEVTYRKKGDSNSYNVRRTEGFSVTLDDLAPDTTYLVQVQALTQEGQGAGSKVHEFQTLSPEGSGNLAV", "test": "BIACORE surface plasmon resonance kinetic analysis (Koff)", "format": "binding", "conditions": "FIG. 15", "source_text": "FIG. 15: Kinetic analysis of EphA2 monoclonal antibodies. BIACORE™ (surface plasmon resonance-based) assays were used to assay the kinetics of EphA2 monoclonal antibody binding to immobilized EphA2-Fc. Eph099B-208.261 is indicated by a solid line, Eph099B-233.152 is indicated by a dotted line, EA2 is indicated by a dashed line, and the negative control is indicated by squares.\nThe surface plasmon resonance-based BIACORE™ assay was used to measure the Koff rates of the monoclonal antibodies of the invention. IgG present in the hybridoma supernatant was used for measurement.\nEphA2-Fc was immobilize to a surface on a CM5 sensorchip using a standard amine (70 μl of a 1:1 mix of NHS/EDC) coupling chemistry. Briefly, a 400 nM solution of EphA2-Fc in 10 mM NaOAc, pH4, was then injected over the activated surface to a density of 1000-1100 RU's. Unused reactive esters were subsequently “capped” with a 70 μl injection of 1M Et-NH2. Similarly, an activated and “capped” control surface was prepared on the same sensor chip without protein to serve as a reference surface.\nA 250 μl injection of each of the EphA2 hybridoma supernatants was made over both the EphA2-Fc and control surfaces, and the binding responses were recorded. These supernatants were used undiluted. Following each injection, at least 10 min. of dissociation phase data was collected. […]"}, "EphA2-Fc": {"target": "T2, EphA2-Fc (Homo sapiens, UniProt P29317)", "T2 construct": "consisted of the extracellular domain of human EphA2 linked to human immunoglobulin", "T2 sequence (P29317 24-537 limits assumed)": "as above", "test": "Competitive ELISA: inhibition of labeled EA2 binding to EphA2-Fc", "conditions": "unlabeled antibody, increasing concentrations; FIG. 1", "description": "The ability of labeled EA2 monoclonal antibody to bind EphA2-Fc was assayed by competitive ELISA in presence of either unlabeled monoclonal antibodies EA2 or Eph099B-208.261. Ratios of unlabeled to labeled antibody used in the assay are indicated on the x-axis. EA2 is indicated by diamonds and Eph099B-208.261 is indicated by squares.\nMonoclonal antibodies against the extracellular domain of EphA2 were generated using the fusion protein EphA2-Fc. This fusion protein consisted of the extracellular domain of human EphA2 linked to human immunoglobulin to facilitate secretion of the fusion protein.\nSupernatants from bulk culture hybridomas were screened for immunoreactivity against EphA2 (Table 6, column 4) using standard molecular biological techniques (e.g., ELISA immunoassay). Supernatants were further screened for the ability to inhibit an EphA2 monoclonal antibody (EA2; ATCC deposit no. PTA-4380; see co-pending U.S. patent application Ser. No. 10/436,783, entitled “EphA2 Agonistic Monoclonal Antibodies and Methods of Use Thereof' filed May 12, 2003) from binding to EphA2. Briefly, the ability of labeled EA2 to bind EphA2-Fc was assayed by competitive ELISA in presence of either unlabeled EA2 or unlabeled Eph099B-208.261 (FIG. 1). […] Additionally, many of the other antibodies could inhibit EA2 binding to EphA2 as well (Table 6, column 3)."}, "MCF-7^EphA2 cells": {"tested_on": "MCF-7^EphA2 cells", "test": "Soft agar colonization of MCF-7^EphA2 cells", "format": "cell-based, human", "conditions": "EA2 10 μg/ml, tamoxifen 1 μM", "description": "FIGS. 11A-11B: EphA2 overexpression decreases tamoxifen sensitivity. (A) 1×10^5 MCF-7 or MCF-7^EphA2 cells were suspended in soft agar in the presence of 1 μM tamoxifen (TAM) and or 1 μM 17β-estradiol and colony formation was evaluated microscopically after 14 days. (B) MCF-7 (circles) or MCF-7^EphA2 cells (squares) were implanted into the mammary fatpad (n=15 mice per group) in the presence of supplemental estrogen. Tamoxifen treatment was initiated 17 days post-implantation. Tumor volume of tamoxifen treated (black circles and squares) and saline treated (white circles and squares) animals was measured at the indicated time.\nFIGS. 13A-13C: EphA2 agonistic antibody EA2 decreases malignant growth. MCF-7^EPhA2 cells were incubated in the presence of 3 μg/ml of EA2 for the time indicated prior to sample extraction and western blot analyses with an EphA2-specific antibody (D7). […]\nEphA2 overexpression increased malignant growth (FIGS. 8A-8B). […] Colony formation in soft agar was performed as previously described (Zelinski et al., 2001, Cancer Res. 61:2301-6) and scored microscopically, defining clusters of at least three cells as a positive. […] Error bars represent the standard error of the mean of at least three different experiments as determined using Microsoft Excel software.\nSensitivity of MCF-7^EphA2 cells to tamoxifen was measured. […]"}}, "note": "“Also recorded” adds a separate entry of the source."}
{"molecule": "B1", "values": [{"measurement": "Koff rate compared with EA2", "setting": "immobilized EphA2-Fc", "result": "slower Koff rates than EA2"}, {"measurement": "Competition with labeled EA2 for binding to EphA2-Fc", "setting": "EphA2-Fc", "result": "could decrease the amount of labeled EA2 binding to EphA2-Fc; also recorded: can compete with EA2 for binding to EphA2"}]}
{"molecule": "B2", "values": [{"measurement": "Sensitivity of MCF-7^EphA2 cells to tamoxifen in soft agar", "setting": "MCF-7^EphA2 cells", "result": "increased the sensitivity of MCF-7^EphA2 cells to tamoxifen"}, {"measurement": "Inhibition / decrease of soft agar colonization, MCF-7^EphA2 cells", "setting": "MCF-7^EphA2 cells", "result": 19, "unit": "%"}, {"measurement": "Competition with labeled EA2 for binding to EphA2-Fc", "setting": "EphA2-Fc", "result": "could decrease the amount of labeled EA2 binding to EphA2-Fc"}]}
{"molecule": "B3", "values": [{"measurement": "Koff rate compared with EA2", "setting": "immobilized EphA2-Fc", "result": "slower Koff rates than EA2"}]}
